Patent US20170209558A1

Legend:
[1] = biological target: Basigin (residues 22-205) (UniProt P35613); experiment: SPR, RH5ΔNL (8 to 0.0625 µM) injected over immobilized basigin, 1:1 binding model; RH5ΔNL fragment (residues 140-526 lacking 248-296)
[2] = biological target: Basigin (residues 22-205) (UniProt P35613); experiment: not stated; given for comparison with the SPR value of RH5ΔNL; full-length RH5 (FLRH5)

Row | Substance | Kd [1] | Kd [2]
1 | RH5ΔNL (PfRH5 fragment, 7G8 strain, residues 140-526 lacking residues 248-296, C-terminal hexa-histidine tag) (from UniProt Q8IFM5 140-526) (ligand) | 1300 nM | 
2 | full-length PfRH5 (7G8 strain), recombinant, C-terminal hexa-histidine tag (from UniProt Q8IFM5 24-526) (ligand) |  | 1100 nM
